Ends that are not written are not given here.
Tests used:
[1] = biological target: T1, hERα-LBD (ligand binding domain of estrogen receptor α) (human, UniProt P03372 297-554); test: fluorescence polarization, labelled peptide 10 nM, hERα-LBD titrated, diethylstilbestrol present; 100 may stand for above the assay limits
T1 construct: Assayed with estradiol, diethylstilbestrol, genistein or tamoxifen present; the ligand is named under assay in each row
T1 sequence (looked up): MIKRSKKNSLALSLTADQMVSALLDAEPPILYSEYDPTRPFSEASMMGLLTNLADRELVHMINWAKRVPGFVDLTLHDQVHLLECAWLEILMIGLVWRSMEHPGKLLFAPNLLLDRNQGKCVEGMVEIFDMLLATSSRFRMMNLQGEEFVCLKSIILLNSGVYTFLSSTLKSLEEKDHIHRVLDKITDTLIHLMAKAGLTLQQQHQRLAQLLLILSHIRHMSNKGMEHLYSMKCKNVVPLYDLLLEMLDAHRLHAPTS
Description: (§1) The concentration of protein varied between 0.001-20 μM in the following way. In 96 well plates, hTRβ-LBD or hERα-LBD was serially diluted from 40 μM to 0.002 μM in binding buffer (50 mM Sodium Phosphate, 150 mM NaCl, pH 7.2, 1 mM DTT, 1 mM EDTA, 0.01% NP40, 10% glycerol), containing 200 μM ligand (T₃, for TRβ, or estradiol, diethylstilbestrol, genistein or tamoxifen for ERα).
(§2) Subsequently 10 μL of diluted protein was added to 10 μL of fluorescent coregulator peptide (20 nM) in 384-well plates yielding final protein concentrations of […] and 10 nM fluorescent peptide concentration. The samples were allowed to equilibriate for 30 minutes. Binding was then measured using fluorescence polarization (excitation λ at 485 nm, emission λ at 530 nm) on an Analyst AD (available from Molecular Devices).
(§3) All experiments were carried out in quadruplicate, with each iteration containing the positive and negative controls, and 10-12 dose points. The data were then fit using Klotz plots to determine IC₅₀ values using nonlinear regression analysis that fits the data to a modification of the model of Heyduk and Lee. (Heyduk et al., Proc. Natl. Acad. Sci., (1990), 1774; Heyduk et al., Nature, (1993), 364, 6437; Heyduk et al., Methods Enzymol., 274, 492. Further analysis was conducted using Hill and Scatchard plots to confirm number and homogeneity of binding sites as discussed hereinbelow.

[2] = biological target: T2, hTRβ-LBD (ligand binding domain of thyroid hormone receptor β) (human, UniProt P10828 202-461); test: fluorescence polarization, hTRβ-LBD titrated, T3 present; Table 3 prints >AL (assay limits) for this pair
T2 construct: Assayed with the small-molecule ligand T3 present
T2 sequence (looked up): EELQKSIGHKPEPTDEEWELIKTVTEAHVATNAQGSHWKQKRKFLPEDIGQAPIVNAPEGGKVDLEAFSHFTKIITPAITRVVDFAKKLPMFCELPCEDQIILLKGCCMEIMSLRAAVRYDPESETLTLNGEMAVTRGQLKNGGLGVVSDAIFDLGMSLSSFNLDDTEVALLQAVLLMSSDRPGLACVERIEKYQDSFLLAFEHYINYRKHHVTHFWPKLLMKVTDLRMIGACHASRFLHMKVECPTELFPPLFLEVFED
Description: as §1, §2, §3

[3] = biological target: T1, hERα-LBD (ligand binding domain of …); test: fluorescence polarization, labelled peptide 10 nM, hERα-LBD titrated, genistein present; 100 may stand for above the assay limits
Description: as §1, §2, §3

[4] = biological target: T1, hERα-LBD (ligand binding domain of …); test: fluorescence polarization, hERα-LBD titrated, estradiol present; repeats Table 4; 100 may stand for above the assay limits
Description: as §1, §2, §3

[5] = biological target: T1, hERα-LBD (ligand binding domain of …); test: fluorescence polarization, labelled peptide 10 nM, hERα-LBD titrated, estradiol present; 100 may stand for above the assay limits
Description: as §1, §2, §3

Measured: Kd

C(5‑iodoacetamidofluorescein)KKENNALLRYLLDRDDPSD [SRC3-3 coregulator peptide]
100 µM: all assays above

Source: US20040005636A1, “Method for obtaining the binding affinities of a peptide library to a protein” (priority 2002, published 2004)
